B1: Disintegrin and metalloproteinase domain-containing protein 22 (Homo sapiens), Q9P0K1-1 (parent)
chain: MQAAVAVSVPFLLLCVLGTCPPARCGQAGDASLMELEKRKENRFVERQSIVPLRLIYRSGGEDESRHDALDTRVRGDLGGPQLTHVDQASFQVDAFGTSFILDVVLNHDLLSSEYIERHIEHGGKTVEVKGGEHCYYQGHIRGNPDSFVALSTCHGLHGMFYDGNHTYLIEPEENDTTQEDFHFHSVYKSRLFEFSLDDLPSEFQQVNITPSKFILKPRPKRSKRQLRRYPRNVEEETKYIELMIVNDHLMFKKHRLSVVHTNTYAKSVVNMADLIYKDQLKTRIVLVAMETWATDNKFAISENPLITLREFMKYRRDFIKEKSDAVHLFSGSQFESSRSGAAYIGGICSLLKGGGVNEFGKTDLMAVTLAQSLAHNIGIISDKRKLASGECKCEDTWSGCIMGDTGYYLPKKFTQCNIEEYHDFLNSGGGACLFNKPSKLLDPPECGNGFIETGEECDCGTPAECVLEGAECCKKCTLTQDSQCSDGLCCKKCKFQPMGTVCREAVNDCDIRETCSGNSSQCAPNIHKMDGYSCDGVQGICFGGRCKTRDRQCKYIWGQKVTASDKYCYEKLNIEGTEKGNCGKDKDTWIQCNKRDVLCGYLLCTNIGNIPRLGELDGEITSTLVVQQGRTLNCSGGHVKLEEDVDLGYVEDGTPCGPQMMCLEHRCLPVASFNFSTCLSSKEGTICSGNGVCSNELKCVCNRHWIGSDCNTYFPHNDDAKTGITLSGNGVAGTNIIIGIIAGTILVLALILGITAWGYKNYREQRQLPQGDYVKKPGDGDSFYSDIPPGVSTNSASSSKKRSNGLSHSWSERIPDTKHISDICENGRPRSNSWQGNLGGNKKKIRGKRFRPRSNSTETLSPAKSPSSSTGSIASSRKYPYPMPPLPDEDKKVNRQSARLWETSI

Variants of: B1
Details: with hck_human HCK

Row | effect of a mutation on the interaction | Variant
1 | decreasing interaction | Y882A
